{"source": "patent US20250283871A1", "about": "“COMPOSITIONS AND METHODS FOR MODULATING THE INTERACTION BETWEEN SS18-SSX FUSION ONCOPROTEIN AND NUCLEOSOMES” (Dana-Farber Cancer Institute, Inc., priority 2020, published 2025)", "molecules": {"B1": {"name": "BCL7B: BAF complex subunit quantified in the IP MS (protein, UniProt Q9BQE9 1-202, looked up)", "B-cell CLL/lymphoma 7 protein …": "MSGRSVRAETRSRAKDDIKKVMAAIEKVRKWEKKWVTVGDTSLRIFKWVPVTDSKEKEKSKSNSSAAREPNGFPSDASANSSLLLEFQDENSNQSSVSDVYQLKVDSSTNSSPSPQQSESLSPAHTSDFRTDDSQPPTLGQEILEEPSLPSSEVADEPPTLTKEEPVPLETQVVEEEEDSGAPPLKRFCVDQPTVPQTASES"}, "B2": {"name": "WT RING1B: wild-type RING1B re-expressed in RING1A/1B-dKO cells (protein, UniProt Q99496 2-336, looked up)", "E3 ubiquitin-protein ligase …": "SQAVQTNGTQPLSKTWELSLYELQRTPQEAITDGLEIVVSPRSLHSELMCPICLDMLKNTMTTKECLHRFCADCIITALRSGNKECPTCRKKLVSKRSLRPDPNFDALISKIYPSRDEYEAHQERVLARINKHNNQQALSHSIEEGLKIQAMNRLQRGKKQQIENGSGAEDNGDSSHCSNASTHSNQEAGPSNKRTKTSDDSGLELDNNNAAMAIDPVMDGASEIELVFRPHPTLMEKDDSAQTRYIKTSGNATVDHLSKYLAVRLALEELRSKGESNQMNLDTASEKQYTIYIATASGQFTVLNGSFSLELVSEKYWKVNKPMELYYAPTKEHK"}, "B3": {"name": "I53A/D56K: RING1B point mutant disrupting the E2 binding interface (protein, UniProt Q99496 2-336, looked up, variant I53A D56K)", "E3 ubiquitin-protein ligase …": "B2 E3 ubiquitin-protein ligase … with I52A, D55K"}, "B4": {"name": "I53A: widely-used RING1B I53A mutant (protein, UniProt Q99496 2-336, looked up, variant I53A)", "E3 ubiquitin-protein ligase …": "B2 E3 ubiquitin-protein ligase … with I52A"}, "B5": {"name": "R91E: ligase-deficient RING1 point mutant, E2 binding interface (protein, UniProt Q99496 2-336, looked up, variant R91E)", "E3 ubiquitin-protein ligase …": "B2 E3 ubiquitin-protein ligase … with R90E"}}, "assay_type_in_all_cases": "cell-based, human", "key": {"BAF complex components": {"test_system": "BAF complex components", "assay": "anti-SMARCA4 (BRG1) IP mass spectrometry (Tables 7A-7C)", "details": "Aska-SS cells -/+ shSSX", "procedure": "Peptide abundance normalized to SMARCA4 abundance. […] SMARCC1, SS18, GFP, SMARCB1, and TBP levels are shown. […] T indicates 0-40 min timecourse; n=3 experimental replicates at each time point; error bars represent standard deviation.\nNuclear extracts were quantified by Bradford assay and 150-200 μg of protein was incubated with 2 μg of antibody in Buffer EB300 (50 mM Tris pH 7.5, 0.1% NP-40, 1 mM EDTA, 1 mM MgCl2, […] with protease inhibitor (Roche, C756U27), 1 mM DTT and 1 mM phenylmethylsulfonyl fluoride (PMSF)) overnight at 4° C. Each sample was then incubated with Protein G Dynabeads® (Thermo Scientific) for 2-3 hours. Beads were washed three times with Buffer EB300 followed by elution with 20 μL of elution buffer (NuPage™ LDS buffer (2×) (Life Technologies) containing 100 mM DTT and water)."}, "Barr bodies (inactive X)": {"test_system": "Barr bodies (inactive X)", "assay": "Immunofluorescence, Barr body localization", "details": "RING1A/1B-dKO HEK-293T cells", "procedure": "Immunofluorescent images were obtained as previously described (Daou et al. (2011) Pro. Nat. Acad. Sci. U.S.A 108:2747-2752). Following lentiviral infection and/or drug treatment, cells were prepared by fixation in 3% PFA-PBS and then were permeabilized with PBS 0.1% NP40. Following incubation with primary antibodies, the Anti-rabbit Alexa Fluor® 594 and Anti-mouse Alexa Fluor® 488 (Life Technologies) secondary antibodies were used for visualization. Staining with 4′,6-diamidino-2-phenylindole (DAPI) was used to visualize nuclei. Images were acquired using Zeiss Axio Imager Z2 microscope and images were processed using ImageJ program (NIH)."}, "H2A K119Ub": {"test_system": "H2A K119Ub", "assay": "Immunoblot of H2A K119Ub deposition in RING1A/B dKO 293T cells rescued with RING1B variants", "details": "RING1A/1B-dKO HEK-293T cells", "procedure": "Detection of proteins by western blot (WB) analysis was achieved using standard protocols with primary antibodies (Table 4). […] The membranes were then blocked in 5% milk and incubated with primary antibody in PBST over night at 4° C. Following incubation with the primary antibody, membranes were washed 3× in PBST, incubated with IRDye® (LI-COR Biosciences) secondary antibodies for 3 hours, washed 3× in PBST with a final PBS wash, and then visualized by the LI-COR Odyssey® Imaging System (LI-COR Biosciences)."}}, "note": "Substitutions are numbered along the chain they refer to. Names and notes keep the numbering of the source."}
{"molecule": "B1", "values": [{"measurement": "Aska (shControl)/Aska (shSS18-SSX) LFQ Intensity (Norm to SMARCA4 Rep 1)", "setting": "BAF complex components; Rep 1", "value": 1.339}, {"measurement": "Aska (shControl)/Aska (shSS18-SSX) LFQ Intensity (Norm to SMARCA4 Rep 2)", "setting": "BAF complex components; Rep 2", "value": 1.126}]}
{"molecule": "B2", "values": [{"measurement": "SS18-SSX / SSX localization after RING1B rescue", "setting": "Barr bodies (inactive X)", "value": "able to completely rescue SSX localization"}]}
{"molecule": "B3", "values": [{"measurement": "SS18-SSX / SSX localization after RING1B rescue", "setting": "Barr bodies (inactive X)", "value": "unable to recruit SS18-SSX"}]}
{"molecule": "B4", "values": [{"measurement": "SS18-SSX / SSX localization after RING1B rescue", "setting": "Barr bodies (inactive X)", "value": "little effect on SSX targeting"}, {"measurement": "H2A ubiquitination", "setting": "H2A K119Ub", "value": "only partially attenuated H2A ubiquitination"}]}
{"molecule": "B5", "values": [{"measurement": "SS18-SSX / SSX localization after RING1B rescue", "setting": "Barr bodies (inactive X)", "value": "unable to recruit SS18-SSX"}]}
